Data reported in US20210008109A1, “METHODS OF TREATING HEMATOLOGICAL DISORDERS, SOLID TUMORS, OR INFECTIOUS DISEASES USING NATURAL KILLER CELLS” (CELGENE CORPORATION, priority 2014, published 2021).

Tested on: Daudi cells
Test: Antibody-dependent cellular cytotoxicity (ADCC) of PiNK cells with rituximab, PKH26/TO-PRO-3 FACS
Type: cell-based
Settings: Daudi cells pre-incubated 1 h with rituximab, compared to human IgG isotype control; E:T 50:1, 20:1, 10:1 and 2.5:1; 4 h at 37° C.
Procedure: The experiments presented herein utilize an anti-CD20 antibody, rituximab, and Daudi cells (Cat #: CCL-213, ATCC), which are high expressers of CD20. Daudi cells were harvested and labeled with PKH26 (Cat #: PKH26GL-1KT, Sigma-Aldrich) (Ferlazzo, G., et al., J Immunol, 172: 1455-1462 (2004); Lehmann, D., et al., Stem Cells Dev, 21: 2926-2938 (2012)), whose lipophilic aliphatic residue inserts into cell plasma membrane. The cells were washed and incubated with rituximab (and human IgG as an isotype control) at different concentrations as indicated in FIG. 1 for 1 h at room temperature. After washing three times, 10^4 target cells were placed in 96-well U-bottom tissue culture plates and incubated with cultured NK cells at various effector-target (E:T) ratios (50:1, 20:1, 10:1 and 2.5:1) in 200 μl RPMI 1640 supplemented with 10% FBS. The Cultures were incubated for 4 h at 37° C. in 5% CO2. After incubation, cells were harvested and TO-PRO-3 (Catalog #T3605, Invitrogen), a membrane-impermeable DNA stain, was added to cultures to 0.25 μM final concentration followed by FACS analysis using BD FACSCanto II. Cytotoxicity (“% cytotoxicity” in FIG. 1) is expressed as percentage of dead cells (PKH26^+TO-PRO-3^+) within the total PKH26^+ target tumor cells, subtracted by spontaneous cell death.

For rituximab, the “% cytotoxicity of PiNK cells (dead PKH26+TO-PRO-3+ cells within total PKH26+ target cells, minus spontaneous cell death)” value was “increases the cytotoxicity”.
